Measured values: the supplement of paper PMC9170038

System: MS2 coat protein
Assay: apparent KD of MS2 coat protein; designed switch direction (-1 OFF switch, 1 ON switch): -1; higher = weaker reporter binding
In short: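 For each design, the apparent KD is the median over clusters of curves fitted to normalised cluster fluorescence. Clusters held RNA switches with common flanks, transcribed on Illumina chips by stalled E. coli RNA polymerase. These were titrated with SNAP-549-labelled MS2 coat protein, doubling from 0.7 or 1.5 nM to 3 µM, without input, with 200 uM small-molecule ligand, or with an oligonucleotide input.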

[1] = Eterna round: R95, input ligand: microRNA oligo, concentration not stated
[2] = Eterna round: R95, input ligand: FMN 200 uM
[3] = Eterna round: R95, input ligand: none
[4] = input ligand: microRNA oligo, concentration not stated

With “AAAUUAGCAAGUAGAUCCGACAUGAGGAUCACCCAUGUAAUCUAAAAUUACGCUGCACGAAAGUGCGCUCGUCUUAG [Sensor-V1 #13] (Eterna round: R97, puzzle: Sensor, turn-off variant 1)” the “apparent KD of MS2 coat protein” value (input ligand: FMN 200 uM) was 362 nM and the “apparent KD of MS2 coat protein” value (input ligand: none) was 405 nM.
With “AAAUUAGCAAGUAGGUCCGACAUGAGGAUCACCCAUGUAAUCUGAAAUUACGCUGCACGAAAGUGCGCUCGUCUUAG [Sensor-V1 #11] (Eterna round: R97, puzzle: Sensor, turn-off variant 1)” the “apparent KD of MS2 coat protein” value (input ligand: FMN 200 uM) was 149 nM and the “apparent KD of MS2 coat protein” value (input ligand: none) was 149 nM.
“AAAUUGCUAGAGGAUAUCGGAUAGGAUCUAUCGCGAGAAGGCUGGACAUGAGGAUCACCCAUGUUCUGUUGGGA [EX6 #29] (Eterna round: R97, puzzle: Exclusion 6)” was tested, and the “apparent KD of MS2 coat protein” value (input ligand: FMN 200 uM) was 57.4 nM and the “apparent KD of MS2 coat protein” value (input ligand: none) was 25.2 nM.
In the case of “AAAUUGGUAGAGGAUAUCGCACAGGAAACACUGCGAGAAGGCUGCACAUGAGGAUCACCCAUGUUUAGUUGCGA [EX6 #37] (Eterna round: R97, puzzle: Exclusion 6)”, the “apparent KD of MS2 coat protein” value (input ligand: FMN 200 uM) was 22.5 nM and the “apparent KD of MS2 coat protein” value (input ligand: none) was 16.6 nM.
For “AAAUUGGUAGAGGAUAUUGUACAGGAAACGGUGCGAGAAGGUUGCACAUGAGGAUCACCCAUGUUAAGUUGCGA [EX6 #46] (Eterna round: R97, puzzle: Exclusion 6)”, the “apparent KD of MS2 coat protein” value (input ligand: FMN 200 uM) was 39.9 nM and the “apparent KD of MS2 coat protein” value (input ligand: none) was 25.7 nM.
With “AAAUUGUGAGGAUAUCAGGUGUGCUAGCGUACUGGUACAUCUGAGAAGGCACAUGAGGAUCACCCAUGUUUCUU [Mat - Exclusion 4 - Mod of JL - D43] (puzzle: Exclusion 4)” the “apparent KD of MS2 coat protein” value [1] was 15.2 nM.
In the case of “AAAUUUGGAGGAUAUCCAUUGGGAAACAUGAGGAUCACCCAUGUAAUAAAAGGGAAAUCCGGAGAAGGCCAAAUUU [-20.39, -19.1 kcal, 39% A] (Eterna round: R97, puzzle: Exclusion 5)”, the “apparent KD of MS2 coat protein” value (input ligand: FMN 200 uM) was 45.7 nM and the “apparent KD of MS2 coat protein” value (input ligand: none) was 19.1 nM.
“AACAACGUAGGAUAUGCAGCUACGGACUUGAGGAUCACCCAAGUGAUCAUAGCCCGUAUAGCAGAAGGGCGGAUCA [Arontebi] (Eterna round: R97, puzzle: Exclusion 5)” was tested, and the “apparent KD of MS2 coat protein” value (input ligand: FMN 200 uM) was 321 nM and the “apparent KD of MS2 coat protein” value (input ligand: none) was 224 nM.
For “AACAAUAAGGAGGAUAUCGUAUCGGAAACGAUACGAGAAGGCUUAACAUGAGGAUCACCCAUGUUCUUCAAUAA [Fiskers Ex 6 - 24] (puzzle: Exclusion 6)”, the “apparent KD of MS2 coat protein” value [2] was 19.1 nM, the “apparent KD of MS2 coat protein” value [1] was 17.1 nM and the “apparent KD of MS2 coat protein” value [3] was 17.7 nM.
“AACAGGUCAGGAUAUACAUGAGGAUCACCCAUGUAGACUUCUGGUCUACCUUGACCGUGUAGAAGGGACCUGAA [Exclusion 3 (MOD2 of #98 Marzena11)] (Eterna round: R97, puzzle: Exclusion 3)” was tested, and the “apparent KD of MS2 coat protein” value (input ligand: FMN 200 uM) was 43.9 nM and the “apparent KD of MS2 coat protein” value (input ligand: none) was 28.8 nM.
For “AACAGUACAGGAUAUACAUGAGGAUCACCCAUGUGAGACUUAAGUGGCGUACCACAAAGUAGAAGGGUACUGGA [JL Maslow Revisted mod 8] (Eterna round: R96, puzzle: Exclusion 3)”, the “apparent KD of MS2 coat protein” value (input ligand: FMN 200 uM) was 838 nM, the “apparent KD of MS2 coat protein” value [4] was 85.9 nM and the “apparent KD of MS2 coat protein” value (input ligand: none) was 90.3 nM.
“AACAGUCUGGAGGAUAUGCUGGAUUAAUAUCUGGCAGAAGGCUGGACAUGAGGAUCACCCAUGUAAAUACUACC [Omei Ex6 A2] (Eterna round: R97, puzzle: Exclusion 6)” was tested, and the “apparent KD of MS2 coat protein” value (input ligand: FMN 200 uM) was 55.2 nM and the “apparent KD of MS2 coat protein” value (input ligand: none) was 21.5 nM.
With “AACAUGUAAGGAUAUAAAAGAAGGAGUACAAAGCCCUCCUAUUAGAAGGUACAUGAGGAUCACCCAUGUGGCGG [Eternabot (L2) Solution 96] (Eterna round: R97, puzzle: Exclusion 4)” the “apparent KD of MS2 coat protein” value (input ligand: FMN 200 uM) was 336 nM and the “apparent KD of MS2 coat protein” value (input ligand: none) was 57.1 nM.
For “AACAUGUGAGGAUAUUUAAGAAAAGAAAAGAAAGAAAAGAAAAAGAAGGCACAUGAGGAUCACCCAUGUAAGAA [EteRNA is fun!] (Eterna round: R96, puzzle: Exclusion 4)”, the “apparent KD of MS2 coat protein” value [4] was 19 nM.
“AACCAGCGAGGAUAUGCUUGCGCGUGUUCUGGUUGUAAUCGACUUGAGGAUCACCCAAGUAGAAGGCGCUGCCG [EX2 #51] (Eterna round: R97, puzzle: Exclusion 2)” was tested, and the “apparent KD of MS2 coat protein” value (input ligand: FMN 200 uM) was 100 nM and the “apparent KD of MS2 coat protein” value (input ligand: none) was 50.9 nM.
In the case of “AACCGUGCGGAGGAUAUUGAUAUCCCAGUCUAUCAAGAAGGCUGCACAUGAGGAUCACCCAUGUGAUCCGUGCU [Riri] (Eterna round: R96, puzzle: Exclusion 6)”, the “apparent KD of MS2 coat protein” value (input ligand: FMN 200 uM) was 201 nM, the “apparent KD of MS2 coat protein” value [4] was 20.7 nM and the “apparent KD of MS2 coat protein” value (input ligand: none) was 25.1 nM.
For “AACCGUGCGGAGGAUAUUGAUAUCCCAGUCUAUCAAGAAGGCUGCACAUGAGGAUCACCCAUGUGAUCCGUGCU [Riri] (puzzle: Exclusion 6)”, the “apparent KD of MS2 coat protein” value [1] was 23.6 nM.
“AACCUCGGAGGAUAUACCUACCGAUUCACAAGUGUCACAUCACAUGAGGAUCACCCAUGUAGAAGGUCGAGGCG [Onorzais] (puzzle: Exclusion 2)” was tested, and the “apparent KD of MS2 coat protein” value [1] was 30.1 nM.
In the case of “AACCUGAGGCUUUGCUUUAGGUGUACAUGAGGAUCACCCAUGUAGGAUAUGGUAGGCUUUGCUUACCAGAAGGACAUAAUGAUG [JL ENG3 1.16] (Eterna round: R96, puzzle: Exclusion NG 3)”, the “apparent KD of MS2 coat protein” value (input ligand: FMN 200 uM) was 81.1 nM, the “apparent KD of MS2 coat protein” value [4] was 30.6 nM and the “apparent KD of MS2 coat protein” value (input ligand: none) was 55.2 nM.
For “AACCUGUCAGGAUAUCAAUUCUGUGCGUGACUACAGGACGCUGAGAAGGGACAUGAGGAUCACCCAUGUUGACU [Eternabot (Original) Solution 33] (Eterna round: R97, puzzle: Exclusion 4)”, the “apparent KD of MS2 coat protein” value (input ligand: FMN 200 uM) was 24.7 nM and the “apparent KD of MS2 coat protein” value (input ligand: none) was 26.8 nM.
In the case of “AACGUGGCUUAGGAUAUUGCUACGCAAAAGUAACAAGAAGGAGGCACAUGAGGAUCACCCAUGUGAUUCGUUGA [Ineror] (puzzle: Exclusion 6)”, the “apparent KD of MS2 coat protein” value [1] was 14.8 nM.
For “AACGUGUGAGGAUAUGCCGUGCCCUUCCGGAAGGAGCGGGUGCAGAAGGCACAUGAGGAUCACCCAUGUCGGCA [Excls4-V] (puzzle: Exclusion 4)”, the “apparent KD of MS2 coat protein” value [1] was 31.4 nM.
In the case of “AACUCACAUGAGGAUCACCCAUGUGAGGAUAUGGUUUCGCUGGCCGUAGCCAGUGGAACCAGAAGGCGCGUGAU [Mat - Exclusion 1 - JL Mod - D26] (Eterna round: R97, puzzle: Exclusion 1)”, the “apparent KD of MS2 coat protein” value (input ligand: FMN 200 uM) was 52.4 nM and the “apparent KD of MS2 coat protein” value (input ligand: none) was 58.9 nM.
With “AACUCAUGUUCAGGAUAUCGCGUUCCAAAGACAUGAGAAGGGAACAUGAGGAUCACCCAUGUGCCCGGUCUCAGACCGGGCUUC [Legebi] (Eterna round: R96, puzzle: Exclusion NG 1)” the “apparent KD of MS2 coat protein” value (input ligand: FMN 200 uM) was 272 nM, the “apparent KD of MS2 coat protein” value [4] was 71 nM and the “apparent KD of MS2 coat protein” value (input ligand: none) was 97.1 nM.
“AACUCCUCAGGAUAUCUGAAAAUGGACAUGAGGAUCACCCAUGUGAAAGUCACAUCCGGAGGAGAAGGGAGGAGAA [Diororlera] (Eterna round: R97, puzzle: Exclusion 5)” was tested, and the “apparent KD of MS2 coat protein” value (input ligand: FMN 200 uM) was 44.6 nM and the “apparent KD of MS2 coat protein” value (input ligand: none) was 16 nM.
With “AACUUCUGAGGAUAUACAUAGAUUUACAUGAGGAUCACCCAUGUUCCUCUAUGUAUAAAUGUAGAAGGCAGAAGAA [JL-ex5-4.37 Malcolm mod] (Eterna round: R97, puzzle: Exclusion 5)” the “apparent KD of MS2 coat protein” value (input ligand: FMN 200 uM) was 88.6 nM and the “apparent KD of MS2 coat protein” value (input ligand: none) was 18.3 nM.
For “AAGAAACAGCUAGGAUAUCAGACCAACAUGAGGAUCACCCAUGUCAAGGUCUUUCUUAGUAGGUUUGAGAAGGAGCCAUAAAUA [Xelequriqu] (Eterna round: R96, puzzle: Exclusion NG 2)”, the “apparent KD of MS2 coat protein” value (input ligand: FMN 200 uM) was 11.7 nM, the “apparent KD of MS2 coat protein” value [4] was 9.11 nM and the “apparent KD of MS2 coat protein” value (input ligand: none) was 11.2 nM.
For “AAGAAACAUGAGGAUCACCCAUGUCAGGAUAUGAGAAGAAAGAAGAAGAAAGAAGGAAUCAGAAGGGACAAAGG [Ex 1 M6 Mod of Hoglahoo] (puzzle: Exclusion 1)”, the “apparent KD of MS2 coat protein” value [2] was 45.5 nM, the “apparent KD of MS2 coat protein” value [1] was 51.7 nM and the “apparent KD of MS2 coat protein” value [3] was 41.8 nM.
In the case of “AAGAAACAUGAGGAUCACCCAUGUGAGGAUAUGAAAAAGAAAAGAAAAGAAAGAAGAAUCAGAAGGCACAAAGA [salish99-ex1_r3_080] (puzzle: Exclusion 1)”, the “apparent KD of MS2 coat protein” value [2] was 26.9 nM, the “apparent KD of MS2 coat protein” value [1] was 22.2 nM and the “apparent KD of MS2 coat protein” value [3] was 27.1 nM.
For “AAGAAACAUGAGGAUCACCCAUGUGAGGAUAUGAAAAAGAAAAGAAAAGAAAGAAGUAUCAGAAGGCACAAAGG [salish99-ex1_r3_023] (puzzle: Exclusion 1)”, the “apparent KD of MS2 coat protein” value [2] was 57.6 nM, the “apparent KD of MS2 coat protein” value [1] was 38.6 nM and the “apparent KD of MS2 coat protein” value [3] was 62.8 nM.
In the case of “AAGAAACAUGAGGAUCACCCAUGUGAGGAUAUGAAAAAGAAAAGAAAAUAAAGAAGAAUCAGAAGGCACAAAGG [Mat - Mod of Hog D3] (puzzle: Exclusion 1)”, the “apparent KD of MS2 coat protein” value [2] was 37.7 nM, the “apparent KD of MS2 coat protein” value [1] was 34.4 nM and the “apparent KD of MS2 coat protein” value [3] was 46.1 nM.
For “AAGAAACAUGAGGAUCACCCAUGUGAGGAUAUGACAAAGAAAAGAAAAGAAAGAAGACUCAGAAGGCACAAAGG [salish99-ex1_r3_039] (puzzle: Exclusion 1)”, the “apparent KD of MS2 coat protein” value [2] was 46.3 nM, the “apparent KD of MS2 coat protein” value [1] was 40.6 nM and the “apparent KD of MS2 coat protein” value [3] was 52 nM.
